Data on two substances can be found in article PMC10475850.

In assay [1] the target is Csp1 (cysteine-rich helical bundle copper-storage protein). Nature of the assay: SEC; analytical size exclusion of the purified protein (Figure S8); conditions not given.
Assay [2] addresses Recombinant Human TGF-alpha (human). Kind of assay: SPR; Biacore X100, multi-cycle kinetics; TGF-α amine-coupled to CM5 chip (100 μg/mL, acetate pH 4.5); binders injected at five concentrations (nanomolar to low micromolar range) 60 s, 60 s dissociation; PBS with 0.05% Tween-20, 25°C, 10 μL/min; global fit. (SPR reads the build-up and loss of mass on a sensor chip optically.)
For assay [3], the target named is Recombinant Human HB-EGF (human). Kind of assay: SPR; Biacore X100, multi-cycle kinetics; HB-EGF amine-coupled to CM5 chip (20 μg/mL, acetate pH 5.0); binders injected at five concentrations (nanomolar range) 180 s, 180 s dissociation; PBS with 0.05% Tween-20, 25°C, 10 μL/min; global fit.
The target of assay [4] is Recombinant Human EGF (human).
For assay [5], the target named is Recombinant Human EGF (human). Nature of the assay: SPR; Biacore X100, multi-cycle kinetics; EGF amine-coupled to CM5 chip (100 μg/mL, acetate pH 4.0); binders injected at five concentrations (nanomolar range) 120 s, 180 s dissociation; PBS with 0.05% Tween-20, 25°C, 10 μL/min; global fit.

For orientation: stoichiometry N means a count of units in the complex or per binding partner. On to “Csp1 (cysteine-rich helical bundle copper-storage protein) (natural protein)”, for which, in assay [1], the stoichiometry N stood at 4.
The Kd is the constant that tells how readily two partners part at equilibrium. As a reminder, the koff is a measure of how fast the partners let go of each other. As usually defined, the kon is a measure of how fast the partners come together. Regarding “human EGFR domain 3 (d3-WT) (domain or fragment)”, in assay [2], the Kd is 2550 nM, the koff was 0.0577 s⁻¹ and the kon turned out to be 38400 M⁻¹ s⁻¹. Further, in assay [3], the Kd was 370 nM, the koff turned out to be 0.0107 s⁻¹ and the kon came out at 47200 M⁻¹ s⁻¹. Moreover, the IC50 of inhibition of proliferation of A431 cells stimulated with 400 pM EGF (EGF acting on EGFR), d3-WT at 0.032-500 nM, 72 h in assay [4] is 476 nM. Also, in assay [5], the Kd came out at 56 nM, the koff was found to be 0.0028 s⁻¹ and the kon was determined as 49700 M⁻¹ s⁻¹.
